Laboratory results: paper PMC3638394 (2013)
Where no end group is shown, it is not given here.

B3: αB-crystallin core domain (αBDom) 68-153 (protein)
chain: MRLEKDRFSVNLDVKHFSPEELKVKVLGDVIEVHGKHEERQDEHGFISREFHRKYRIPADVDPLTITSSLSSDGVLTVNGPRKQVS

Experiments:
Experiment in all cases: ion-mobility native mass spectrometry titration
[1] = target: T1, αBPal C-terminal peptide, second binding (Homo sapiens, not fully specified)
T1 chain: ERTIPITRE

[2] = target: T2, αBExt C-terminal peptide, second binding (Homo sapiens, not fully specified; dimer with one αBExt peptide already bound)
T2 chain: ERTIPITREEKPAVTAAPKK

[3] = target: B3
[4] = target: T3, αBPal C-terminal peptide, first binding (Homo sapiens)
T3 chain: ERTIPITRE

[5] = target: the molecule itself
[6] = target: T4, αBExt C-terminal peptide, first binding (Homo sapiens)
T4 chain: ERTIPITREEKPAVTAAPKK

B1: αB-crystallin core domain (αBDom) dimer 68-153 (protein)
chain: MRLEKDRFSVNLDVKHFSPEELKVKVLGDVIEVHGKHEERQDEHGFISREFHRKYRIPADVDPLTITSSLSSDGVLTVNGPRKQVS
B1 gave a Kd [1] of 150 µM and a Kd [2] of 300 µM.

B2: αB-crystallin core domain (αBDom) 68-153 (protein)
chain: MRLEKDRFSVNLDVKHFSPEELKVKVLGDVIEVHGKHEERQDEHGFISREFHRKYRIPADVDPLTITSSLSSDGVLTVNGPRKQVS
modifications: both subunits bound to αBPal peptide
B2 showed a Kd [3] of 4 µM.

Binder B3 has a Kd [4] of roughly 70 µM, a Kd [5] of roughly 2 µM and a Kd [6] of roughly 70 µM.

B4: αB-crystallin core domain (αBDom) 68-153 (protein)
chain: MRLEKDRFSVNLDVKHFSPEELKVKVLGDVIEVHGKHEERQDEHGFISREFHRKYRIPADVDPLTITSSLSSDGVLTVNGPRKQVS
modifications: both subunits bound to αBExt peptide
B4 was tested, and the Kd [3] was 6 µM.
